In patent US20030073808:

Tests used:
[1] = tested on: ChePep-6 (AFTA combined with a peptide having SEQ ID No. 8)
[2] = tested on: ChePep-3 (PSDE combined with a peptide having SEQ ID No. 6)
[3] = tested on: ChePep-2 (IDA coupled with a peptide having SEQ ID No. 5)
[4] = tested on: ChePep-1 (PSDE coupled with the peptide having SEQ ID No. 4)
[5] = tested on: ChePep-5 (AFTA combined with a peptide having SEQ ID No. 7)

For Active MMP-9 enzyme, the “FRET substrate peptide cleavage by MMP-9” value [1] was “ChePep-6 is an effective MMP-9 regulator at low molar stoichiometries”, the “FRET substrate peptide cleavage by MMP-9” value [2] was “show nearly identical ability to regulate MMP-9 in the standard FRET assay” and the “FRET substrate peptide cleavage by MMP-9” value [3] was “regulates MMP-9 in the fluorescence resonance energy transfer (FRET) assay in a dose dependent manner”. For the same substance, the “hydrolysis of fluoresceinated collagen by MMP-9” value [4] was “prevents the enzyme from degrading fluoresceinated collagen in a dose dependent manner” and the “FRET substrate peptide cleavage by MMP-9” value [5] was “ChePep-5 proves to be a better regulator than the IDA or the PSDE based chelating peptides”.
